# Laboratory results reported in patent publication US9017992.
# Experiments:
# [1] = biological target: Human Estrogen Receptor (human) (UniProt P03372); assay: IHC on multi-block FFPE tissue, primary 1:200, K5007 reference
# [2] = biological target: Human Estrogen Receptor (human) (UniProt P03372); assay: IHC on multi-block FFPE tissue, primary 1:200, PNA system (D12102 + D12094)
# [3] = biological target: human BCL2 oncoprotein (human) (UniProt P10415); assay: IHC on multi-block FFPE tissue, primary 1:500, K5007 reference
# [4] = biological target: human BCL2 oncoprotein (human) (UniProt P10415); assay: IHC on multi-block FFPE tissue, primary 1:500, PNA system (D12102 + D12094)
# Human CD20cy (human) [5] = biological target: Human CD20cy (human) (UniProt P11836); assay: IHC on multi-block FFPE tissue, primary 1:8000, K5007 reference
# Human CD20cy (human) [6] = biological target: Human CD20cy (human) (UniProt P11836); assay: IHC on FFPE tonsil, primary 1:8000, EnVision-based detection K5007
# Human CD20cy (human) [7] = biological target: Human CD20cy (human) (UniProt P11836); assay: IHC on FFPE tonsil, primary 1:2000, PNA based detection (D12102 + D12094)
# Human CD20cy (human) [8] = biological target: Human CD20cy (human) (UniProt P11836); assay: IHC on FFPE tonsil, primary 1:8000, PNA based detection (D12102 + D12094)
# Human CD20cy (human) [9] = biological target: Human CD20cy (human) (UniProt P11836); assay: IHC on FFPE tonsil, primary 1:14000, PNA based detection (D12102 + D12094)
# Human CD20cy (human) [10] = biological target: Human CD20cy (human) (UniProt P11836); assay: IHC on multi-block FFPE tissue, primary 1:8000, PNA system (D12102 + D12094)
# [11] = biological target: Human Ki-67 Antigen (human) (UniProt P46013); assay: IHC on multi-block FFPE tissue, primary 1:1200, K5007 reference
# [12] = biological target: Human Ki-67 Antigen (human) (UniProt P46013); assay: IHC on FFPE tonsil, primary 1:1200, EnVision-based detection K5007
# [13] = biological target: Human Ki-67 Antigen (human) (UniProt P46013); assay: IHC on FFPE tonsil, primary 1:400, PNA based detection (D12102 + D12094)
# [14] = biological target: Human Ki-67 Antigen (human) (UniProt P46013); assay: IHC on FFPE tonsil, primary 1:1200, PNA based detection (D12102 + D12094)
# [15] = biological target: Human Ki-67 Antigen (human) (UniProt P46013); assay: IHC on FFPE tonsil, primary 1:2400, PNA based detection (D12102 + D12094)
# [16] = biological target: Human Ki-67 Antigen (human) (UniProt P46013); assay: IHC on multi-block FFPE tissue, primary 1:1200, PNA system (D12102 + D12094)
# [17] = biological target: Human Ki-67 Antigen (human) (UniProt P46013); assay: IHC on multi tissue section, M7240 1:150, 3-layer PNA system with HRP, DAB+
# [18] = biological target: Human Ki-67 Antigen (human) (UniProt P46013); assay: Double IHC on multi tissue sections, M7240 1:150, 3-layer PNA system with AP
# [19] = biological target: Human Ki-67 Antigen (human) (UniProt P46013); assay: Double IHC on multi tissue sections, M7240 1:150, 3-layer PNA system with HRP, detection method 1
# [20] = biological target: Human Ki-67 Antigen (human) (UniProt P46013); assay: Double IHC on multi tissue sections, M7240 1:150, 3-layer PNA system with HRP, detection method 2
# [21] = biological target: Human Ki-67 Antigen (human) (UniProt P46013); assay: IHC on multi tissue section, M7240 1:150, 3-layer PNA system with AP / Permanent Red; first of two scores, taken as the specific one
# [22] = biological target: Human Epithelial Membrane Antigen (human) (UniProt P15941); assay: IHC on multi-block FFPE tissue, primary 1:6400, K5007 reference
# [23] = biological target: Human Epithelial Membrane Antigen (human) (UniProt P15941); assay: IHC on multi-block FFPE tissue, primary 1:6400, PNA system (D12102 + D12094)
# Human p27 (human) [24] = biological target: Human p27 (human) (UniProt P46527); assay: IHC on multi-block FFPE tissue, primary 1:400, K5007 reference
# Human p27 (human) [25] = biological target: Human p27 (human) (UniProt P46527); assay: IHC on multi-block FFPE tissue, primary 1:400, PNA system (D12102 + D12094)
# Human CD45 LCA (human) [26] = biological target: Human CD45 LCA (human) (UniProt P08575); assay: IHC on multi-block FFPE tissue, primary 1:1600, K5007 reference
# Human CD45 LCA (human) [27] = biological target: Human CD45 LCA (human) (UniProt P08575); assay: IHC on multi-block FFPE tissue, primary 1:1600, PNA system (D12102 + D12094)
# [28] = biological target: Human Cytokeratin (human); assay: IHC on multi-block FFPE tissue, primary 1:900, K5007 reference
# [29] = biological target: Human Cytokeratin (human); assay: IHC on FFPE tonsil, primary 1:900, EnVision-based detection K5007
# [30] = biological target: Human Cytokeratin (human); assay: IHC on FFPE tonsil, primary 1:900, PNA based detection (D12102 + D12094)
# [31] = biological target: Human Cytokeratin (human); assay: IHC on FFPE tonsil, primary 1:1600, PNA based detection (D12102 + D12094)
# [32] = biological target: Human Cytokeratin (human); assay: IHC on multi-block FFPE tissue, primary 1:900, PNA system (D12102 + D12094)
# [33] = biological target: Human Cytokeratin (human); assay: Double IHC on multi tissue sections, M3515 1:50, GaM-dex-PNA1 + PNA2-dex-HRP, DAB+
# [34] = biological target: Human Cytokeratin (human); assay: Double IHC on multi tissue sections, M3515 1:50, GaM-dex-PNA1 (209-149) + PNA2-dex-HRP (209-157), detection method 1
# [35] = biological target: Human Cytokeratin (human); assay: Double IHC on multi tissue sections, M3515 1:50, GaM-dex-PNA1 (209-149) + PNA2-dex-HRP (209-157), detection method 2
# [36] = biological target: Human Cytokeratin (human); assay: IHC on FFPE tonsil, primary 1:300, PNA based detection (GAM/dextran/PNA1 D12102 + HRP/dextran/PNA2 D12094); score 0 to 3+
# [37] = biological target: mouse anti-human BCL2 oncoprotein, Clone 124 (DakoCytomation code No. M0887); assay: IHC on FFPE tonsil: unconjugated M0887 1:100 (0.015 uM) on tissue, then K5007 GaM:HRP 30 min
# Tonsil tissues = assay: IHC on FFPE tonsil, negative control IgG1 1:300, EnVision-based detection K5007
# Human CD68 (human) [38] = biological target: Human CD68 (human) (UniProt P34810); assay: IHC on multi-block FFPE tissue, primary 1:800, K5007 reference
# Human CD68 (human) [39] = biological target: Human CD68 (human) (UniProt P34810); assay: IHC on multi-block FFPE tissue, primary 1:800, PNA system (D12102 + D12094)
# Human Desmin (human) [40] = biological target: Human Desmin (human) (UniProt P17661); assay: IHC on multi-block FFPE tissue, primary 1:1200, K5007 reference
# Human Desmin (human) [41] = biological target: Human Desmin (human) (UniProt P17661); assay: IHC on multi-block FFPE tissue, primary 1:1200, PNA system (D12102 + D12094)
# UniProt P46013, sequence (P46013 whole entry): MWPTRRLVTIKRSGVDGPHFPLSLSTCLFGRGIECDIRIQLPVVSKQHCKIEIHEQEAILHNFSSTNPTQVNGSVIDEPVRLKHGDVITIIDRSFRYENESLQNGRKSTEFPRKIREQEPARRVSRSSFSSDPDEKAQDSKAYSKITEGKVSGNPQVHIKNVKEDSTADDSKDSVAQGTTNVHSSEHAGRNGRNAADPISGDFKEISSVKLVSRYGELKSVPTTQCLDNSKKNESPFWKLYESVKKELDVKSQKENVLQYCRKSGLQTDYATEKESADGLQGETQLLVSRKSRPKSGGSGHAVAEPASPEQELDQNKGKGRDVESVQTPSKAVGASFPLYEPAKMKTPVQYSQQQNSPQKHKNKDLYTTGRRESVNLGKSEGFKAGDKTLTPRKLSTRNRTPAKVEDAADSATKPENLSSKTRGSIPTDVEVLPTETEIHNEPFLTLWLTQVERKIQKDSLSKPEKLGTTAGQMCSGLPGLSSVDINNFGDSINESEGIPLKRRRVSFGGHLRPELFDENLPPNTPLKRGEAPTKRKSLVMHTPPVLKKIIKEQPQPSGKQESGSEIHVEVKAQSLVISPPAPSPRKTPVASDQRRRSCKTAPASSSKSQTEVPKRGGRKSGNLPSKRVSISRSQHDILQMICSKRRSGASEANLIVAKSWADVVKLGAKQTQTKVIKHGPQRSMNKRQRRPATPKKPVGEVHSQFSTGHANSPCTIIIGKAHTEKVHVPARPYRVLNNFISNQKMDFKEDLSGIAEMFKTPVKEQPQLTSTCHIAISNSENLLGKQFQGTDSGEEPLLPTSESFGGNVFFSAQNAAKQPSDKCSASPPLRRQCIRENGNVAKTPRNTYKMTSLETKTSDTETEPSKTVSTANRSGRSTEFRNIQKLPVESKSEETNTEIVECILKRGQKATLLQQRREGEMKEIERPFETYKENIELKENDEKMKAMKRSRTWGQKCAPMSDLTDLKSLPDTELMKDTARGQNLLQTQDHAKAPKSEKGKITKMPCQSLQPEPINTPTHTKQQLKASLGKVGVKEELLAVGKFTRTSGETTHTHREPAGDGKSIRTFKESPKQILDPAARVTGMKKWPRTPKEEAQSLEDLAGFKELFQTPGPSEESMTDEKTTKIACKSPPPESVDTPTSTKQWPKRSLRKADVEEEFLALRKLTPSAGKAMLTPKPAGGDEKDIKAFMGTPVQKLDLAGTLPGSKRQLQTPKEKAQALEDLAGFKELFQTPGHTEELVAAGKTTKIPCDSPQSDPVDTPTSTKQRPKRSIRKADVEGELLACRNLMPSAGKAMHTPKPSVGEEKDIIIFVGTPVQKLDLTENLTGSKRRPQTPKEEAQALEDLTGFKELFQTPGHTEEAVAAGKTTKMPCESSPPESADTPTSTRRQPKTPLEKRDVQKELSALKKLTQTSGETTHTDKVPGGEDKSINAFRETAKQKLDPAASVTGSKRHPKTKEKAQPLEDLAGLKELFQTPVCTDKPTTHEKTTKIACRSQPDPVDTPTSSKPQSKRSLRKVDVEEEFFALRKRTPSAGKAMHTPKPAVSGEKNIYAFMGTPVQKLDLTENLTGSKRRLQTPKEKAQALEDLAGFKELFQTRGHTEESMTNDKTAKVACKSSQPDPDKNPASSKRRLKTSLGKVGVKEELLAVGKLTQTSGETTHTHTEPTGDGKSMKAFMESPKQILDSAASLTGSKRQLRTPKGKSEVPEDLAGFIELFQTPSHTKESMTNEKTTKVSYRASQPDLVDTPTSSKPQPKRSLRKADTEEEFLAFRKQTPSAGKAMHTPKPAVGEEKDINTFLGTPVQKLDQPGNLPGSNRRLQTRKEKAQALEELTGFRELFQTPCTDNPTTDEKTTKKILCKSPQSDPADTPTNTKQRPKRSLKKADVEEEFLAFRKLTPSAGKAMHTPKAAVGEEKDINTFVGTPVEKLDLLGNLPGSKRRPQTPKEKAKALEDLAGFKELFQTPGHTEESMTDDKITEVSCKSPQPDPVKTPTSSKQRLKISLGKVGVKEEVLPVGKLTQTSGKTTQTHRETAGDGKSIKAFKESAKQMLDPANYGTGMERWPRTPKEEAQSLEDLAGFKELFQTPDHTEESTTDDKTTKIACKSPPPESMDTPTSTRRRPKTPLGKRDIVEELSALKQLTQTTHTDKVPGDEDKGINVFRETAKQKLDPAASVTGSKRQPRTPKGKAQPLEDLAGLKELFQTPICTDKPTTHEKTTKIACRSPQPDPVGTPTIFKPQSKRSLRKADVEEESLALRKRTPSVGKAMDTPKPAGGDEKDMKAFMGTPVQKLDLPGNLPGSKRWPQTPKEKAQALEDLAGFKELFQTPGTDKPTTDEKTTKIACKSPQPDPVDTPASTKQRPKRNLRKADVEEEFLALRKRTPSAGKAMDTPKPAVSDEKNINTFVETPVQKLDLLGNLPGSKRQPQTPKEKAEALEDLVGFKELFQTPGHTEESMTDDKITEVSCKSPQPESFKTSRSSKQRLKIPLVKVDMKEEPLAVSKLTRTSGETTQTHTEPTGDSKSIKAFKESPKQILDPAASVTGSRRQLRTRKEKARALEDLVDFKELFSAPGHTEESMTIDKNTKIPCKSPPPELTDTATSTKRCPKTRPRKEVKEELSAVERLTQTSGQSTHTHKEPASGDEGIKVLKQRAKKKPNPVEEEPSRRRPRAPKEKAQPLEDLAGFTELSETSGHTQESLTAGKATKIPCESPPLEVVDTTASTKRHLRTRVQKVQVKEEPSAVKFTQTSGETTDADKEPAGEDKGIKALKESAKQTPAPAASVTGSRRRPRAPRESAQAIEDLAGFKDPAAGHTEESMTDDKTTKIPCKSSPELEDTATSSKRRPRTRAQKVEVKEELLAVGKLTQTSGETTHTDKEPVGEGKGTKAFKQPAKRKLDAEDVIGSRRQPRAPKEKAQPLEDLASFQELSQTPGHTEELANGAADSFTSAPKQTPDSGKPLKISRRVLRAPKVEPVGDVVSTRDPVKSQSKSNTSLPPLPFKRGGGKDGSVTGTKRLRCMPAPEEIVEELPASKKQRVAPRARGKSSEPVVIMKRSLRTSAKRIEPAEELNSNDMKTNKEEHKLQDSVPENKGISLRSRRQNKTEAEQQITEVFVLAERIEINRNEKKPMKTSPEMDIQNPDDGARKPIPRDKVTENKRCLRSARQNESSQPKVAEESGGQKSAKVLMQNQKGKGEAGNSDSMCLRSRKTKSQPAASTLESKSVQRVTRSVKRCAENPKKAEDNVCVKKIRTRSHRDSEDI
# UniProt P11836, sequence (P11836 whole entry): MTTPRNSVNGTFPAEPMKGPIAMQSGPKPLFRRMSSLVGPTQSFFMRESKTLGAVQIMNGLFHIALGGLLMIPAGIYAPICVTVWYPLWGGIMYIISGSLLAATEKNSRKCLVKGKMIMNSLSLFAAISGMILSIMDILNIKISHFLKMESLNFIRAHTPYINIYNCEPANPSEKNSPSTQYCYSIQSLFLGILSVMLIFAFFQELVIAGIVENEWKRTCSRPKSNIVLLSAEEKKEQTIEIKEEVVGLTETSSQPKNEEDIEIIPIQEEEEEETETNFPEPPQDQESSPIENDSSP
# UniProt P10415, sequence (P10415 whole entry): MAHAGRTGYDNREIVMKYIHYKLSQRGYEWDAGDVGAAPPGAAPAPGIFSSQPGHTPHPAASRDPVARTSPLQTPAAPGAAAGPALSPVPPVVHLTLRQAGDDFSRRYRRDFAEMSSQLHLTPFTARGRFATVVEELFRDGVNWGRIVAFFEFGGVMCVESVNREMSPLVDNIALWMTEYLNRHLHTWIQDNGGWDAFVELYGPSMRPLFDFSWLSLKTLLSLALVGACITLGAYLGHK
# UniProt P46527, sequence (P46527 whole entry): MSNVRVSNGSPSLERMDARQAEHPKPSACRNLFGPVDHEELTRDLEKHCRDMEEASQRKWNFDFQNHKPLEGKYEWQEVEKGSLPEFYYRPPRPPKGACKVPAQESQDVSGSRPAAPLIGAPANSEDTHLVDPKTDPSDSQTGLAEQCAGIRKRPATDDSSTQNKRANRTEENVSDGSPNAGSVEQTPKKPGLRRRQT
# UniProt P17661, sequence (P17661 2-470 limits assumed): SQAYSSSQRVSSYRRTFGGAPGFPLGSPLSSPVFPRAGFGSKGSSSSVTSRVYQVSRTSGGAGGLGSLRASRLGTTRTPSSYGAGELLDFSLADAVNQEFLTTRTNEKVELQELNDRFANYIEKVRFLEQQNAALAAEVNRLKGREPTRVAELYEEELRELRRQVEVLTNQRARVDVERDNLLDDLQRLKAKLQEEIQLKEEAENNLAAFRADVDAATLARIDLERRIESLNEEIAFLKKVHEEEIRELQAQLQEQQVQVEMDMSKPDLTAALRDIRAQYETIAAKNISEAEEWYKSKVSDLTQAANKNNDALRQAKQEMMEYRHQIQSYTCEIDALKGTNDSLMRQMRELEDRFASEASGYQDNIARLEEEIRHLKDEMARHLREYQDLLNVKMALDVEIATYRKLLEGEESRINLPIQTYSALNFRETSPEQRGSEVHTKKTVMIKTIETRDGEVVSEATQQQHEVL
# UniProt P03372, sequence (P03372 whole entry): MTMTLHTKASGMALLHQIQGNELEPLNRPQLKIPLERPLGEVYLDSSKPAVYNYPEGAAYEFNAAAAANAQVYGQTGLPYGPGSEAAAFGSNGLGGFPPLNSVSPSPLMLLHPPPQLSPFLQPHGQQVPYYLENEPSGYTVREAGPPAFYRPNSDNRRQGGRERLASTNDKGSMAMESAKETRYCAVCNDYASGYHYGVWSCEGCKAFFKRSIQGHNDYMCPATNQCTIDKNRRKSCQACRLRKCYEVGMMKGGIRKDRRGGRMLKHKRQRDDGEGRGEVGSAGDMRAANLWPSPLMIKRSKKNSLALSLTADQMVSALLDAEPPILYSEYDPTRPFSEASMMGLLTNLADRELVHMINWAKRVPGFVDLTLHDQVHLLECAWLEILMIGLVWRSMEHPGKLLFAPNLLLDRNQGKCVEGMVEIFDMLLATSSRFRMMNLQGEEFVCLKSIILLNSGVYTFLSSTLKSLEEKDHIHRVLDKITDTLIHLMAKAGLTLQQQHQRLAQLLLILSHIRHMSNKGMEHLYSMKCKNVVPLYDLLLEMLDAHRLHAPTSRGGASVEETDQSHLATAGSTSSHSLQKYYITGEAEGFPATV
substance,measurement,setting,value
Monoclonal Mouse Anti-Human Estrogen Receptor (DakoCytomation code No. M7047) (antibody),Specific staining intensity,[1],2.5 score
same,Specific staining intensity,[2],3 score
"mouse anti-human BCL2 oncoprotein, Clone 124 (DakoCytomation code No. M0887) (antibody)",Specific staining intensity,[3],2 score
same,Specific staining intensity,[4],2 score
Monoclonal Mouse Anti-Human CD20cy (DakoCytomation code No. M0755) (antibody),Specific staining intensity,Human CD20cy (human) [5],1.5 score
same,Specific staining intensity,Human CD20cy (human) [6],2 score
same,Specific staining intensity,Human CD20cy (human) [7],3 score
same,Specific staining intensity,Human CD20cy (human) [8],2.5 score
same,Specific staining intensity,Human CD20cy (human) [9],1.5 score
same,Specific staining intensity,Human CD20cy (human) [10],1.5 score
Monoclonal Mouse Anti-Human Ki-67 Antigen (DakoCytomation code No. M7240) (antibody),Specific staining intensity,[11],1.5 score
same,Specific staining intensity,[12],2 score
same,Specific staining intensity,[13],3 score
same,Specific staining intensity,[14],2.5 score
same,Specific staining intensity,[15],1.5 score
same,Specific staining intensity,[16],2 score
same,Staining intensity score,[17],2.5
same,specific staining,[18],2 score
same,specific staining,[19],1.5 score
same,specific staining,[20],1.5 score
same,staining score,[21],1
Monoclonal Mouse Anti-Human Epithelial Membrane Antigen (DakoCytomation code No. M0613) (antibody),Specific staining intensity,[22],1.5 score
same,Specific staining intensity,[23],2.5 score
Monoclonal Mouse Anti-Human p27 (DakoCytomation code No. M7203) (antibody),Specific staining intensity,Human p27 (human) [24],1.5 score
same,Specific staining intensity,Human p27 (human) [25],2.5 score
Monoclonal Mouse Anti-Human CD45 LCA (DakoCytomation code No. M0701) (antibody),Specific staining intensity,Human CD45 LCA (human) [26],2 score
same,Specific staining intensity,Human CD45 LCA (human) [27],3 score
Monoclonal Mouse Anti-Human Cytokeratin (DakoCytomation code No. M3515) (antibody),Specific staining intensity,[28],1.5 score
same,Specific staining intensity,[29],2 score
same,Specific staining intensity,[30],2.5 score
same,Specific staining intensity,[31],1.5 score
same,Specific staining intensity,[32],2 score
same,specific staining,[33],3 score
same,specific staining,[34],2.5 score
same,specific staining,[35],3 score
same,Specific staining intensity,[36],3 score
"K5007 GaM:HRP complex (ChemMate EnVision Detection kit Rabbit/Mouse, DakoCytomation code No. K5007 bottle A) (antibody)",Specific staining intensity with K5007,[37],3 score
mouse IgG1 negative control (DakoCytomation code No. X0931) (antibody),Specific staining intensity,Tonsil tissues,0 score
Monoclonal Mouse Anti-Human CD68 (DakoCytomation code No. M0876) (antibody),Specific staining intensity,Human CD68 (human) [38],2 score
same,Specific staining intensity,Human CD68 (human) [39],2 score
Monoclonal Mouse Anti-Human Desmin (DakoCytomation code No. M0760) (antibody),Specific staining intensity,Human Desmin (human) [40],1.5 score
same,Specific staining intensity,Human Desmin (human) [41],1.5 score
